Reference: US20240376227A1 (published 2024)
Residue numbers refer to the chain shown, from its start.

B1: mouse anti-CK2α monoclonal antibody clone 10B2, mAb (10B2) (antibody, mouse IgG2b, V domains shown)
VH: QVQLQQSGAELVRPGASVTLSCKASGYTFTDYQMHWVKQTPVHGLEWIGVIDPGTGGTAYNQKFKGKAILTADKSSNTAYMELRSLTSEDSAVYYCTGFVWGTGSPVTVSS
VL: DIQMTQSPSSLSASLGERVSLTCRASQDIGNNLNWLQQEPDGTIKRLIYATSSLDSGVPKRFTGSRSGSDYSLTISSLESEDFVDYYCLQYAIFPYTFGGGTKLEIKR
notes: As printed they appear to include a leader and the first constant region residues
B2: mouse anti-CK2α monoclonal antibody clone 16C2, mAb (16C2) (antibody, mouse IgG2b, V domains shown)
VH: B1 VH with T28K, I51L, K65R, N77S, S105T, P106T
VL: B1 VL with N31S, N32S, T63S
notes: as for B1
B3: mouse anti-CK2α monoclonal antibody clone 15C1, mAb (15C1) (antibody, mouse IgG2b, V domains shown)
VH: B1 VH with Y32F, G66D, S105T, P106T
VL: B1 VL
notes: as for B1

Target: T1, recombinant human CK2α protein (human, UniProt P68400 1-391)
T1 construct: also called recombinant CK2α protein; Casein kinase 2 alpha 1
Test: Western blotting on 0.05, 0.1 or 0.2 µg purified recombinant protein, antibody at 0.1 µg/mL
Method: Using mAb (6A3), mAb (10B2), mAb (15C1), mAb (16C2), mAb (19C2), and mAb (21B1) of the present invention, a purified product of recombinant CK2α protein was detected by Western blotting. The recombinant CK2α protein obtained by purifying the human-derived CK2α protein expressed by introducing the pGEX2T-CK2α gene in E. coli was used. The recombinant CK2α protein in an amount of 0.05 μg, 0.1 μg, or 0.2 μg was treated with SDS, electrophoresed, and was subjected to detection with six antibodies of the present invention at 0.1 μg/mL.

T1 sequence (P68400 whole entry): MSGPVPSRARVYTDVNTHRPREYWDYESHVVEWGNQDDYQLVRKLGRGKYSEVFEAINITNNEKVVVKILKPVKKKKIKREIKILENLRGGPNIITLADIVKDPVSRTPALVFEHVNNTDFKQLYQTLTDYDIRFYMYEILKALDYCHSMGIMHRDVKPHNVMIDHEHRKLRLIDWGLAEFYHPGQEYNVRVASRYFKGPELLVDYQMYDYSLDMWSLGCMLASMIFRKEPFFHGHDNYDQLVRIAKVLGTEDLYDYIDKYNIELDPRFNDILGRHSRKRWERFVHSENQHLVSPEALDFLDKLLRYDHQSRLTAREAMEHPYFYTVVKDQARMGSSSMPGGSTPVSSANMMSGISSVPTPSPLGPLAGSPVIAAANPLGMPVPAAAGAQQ

binding result | Binder
binds | B1
binds | B2
binds | B3

Target: T2, endogenous CK2α protein (UniProt P68400 1-391)
T2 construct: Native protein in cell lysates, chromatin fractions or fixed tissue sections of human origin; also called cellular endogenous CK2α protein; CK2α protein localized to the nucleolus
Test: Western blotting after immunoprecipitation, MCF-7 and Flag-CK2α-expressing HEK293 cells
Method: A lysate was prepared from a breast cancer cell line MCF-7 (JCRB cell bank, #JCRB0134) and Flag-CK2α protein-expressing HEK293 cells. The MCF-7 cell line or Flag-CK2α-protein-expressing HEK293 cells were cultured, and washed with PBS, and then collected from the plate. A soluble fraction was partially purified from the cell lysate in accordance with common methods, and the anti-CK2α antibody (1 μg of six antibodies of the present invention or the control antibody) was added. Then, mixing was performed mildly at 4° C. for two hours, and then, Protein G-agarose beads were added, and a CK2α immune complex was formed. Then, the immunoprecipitates obtained by centrifugation were treated with SDS, and then electrophoresed. In Western blotting, the antibody of the present invention or the control antibody was used at 0.1 μg/mL.
The Western blotting performed with the control antibody detected, in the MCF-7 cell line, a band of the endogenous CK2α and in addition, a nonspecific band equal to or stronger than the band, and also detected, in the Flag-CK2α protein-expressing HEK293 cells, bands of the endogenous CK2α and Flag-CK2α, and in addition, a nonspecific band equal to or stronger than the bands.

T2 sequence (P68400 whole entry): as above

binding result | Binder
binds | B1
binds | B2
binds | B3
